One block for each molecule: values may come before it.
Experiments:
[1] = target: F-actin (rat, endogenous, 100,000 x g pellet) (rat (endogenous in RMC)) (UniProt P60711); experiment: co-sedimentation
[2] = target: human GST-cofilin (human) (UniProt P23528); experiment: pull-down
cross-linking [3] = target: the molecule itself; experiment: cross-linking
cross-linking [4] = target: the molecule itself; experiment: cross-linking; remark: listed apart in the source

human GST-cofilin (human), sequence (P23528 whole entry): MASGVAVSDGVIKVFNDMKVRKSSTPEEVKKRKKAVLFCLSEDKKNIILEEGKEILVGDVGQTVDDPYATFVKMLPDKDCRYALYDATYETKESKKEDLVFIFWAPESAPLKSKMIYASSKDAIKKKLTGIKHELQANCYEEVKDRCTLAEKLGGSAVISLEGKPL

B2: adenylyl cyclase-associated protein CAP1 (rat, endogenous, monomer) (natural protein, rat (endogenous in RMC), UniProt Q08163 1-474, looked up)
chain: MADMQNLVERLERAVGRLEAVSHTSDMHCGYGDSPSKGAVPYVQAFDSLLANPVAEYLKMSKEIGGDVQKHAEMVHTGLKLERALLVTASQCQQPAGNKLSDLLAPISEQIQEVITFREKNRGSKFFNHLSAVSESIQALGWVALAAKPGPFVKEMNDAAMFYTNRVLKEYRDVDKKHVDWVRAYLSIWTELQAYIKEFHTTGLAWSKTGPVAKELSGLPSGPSVGSGPPPPPPGPPPPPVPTSSGSDDSASRSALFAQINQGESITHALKHVSDDMKTHKNPALKAQSGPVRSGPKPFSAPKPQTSPSPKPATKKEPALLELEGKKWRVENQENVSNLVIDDTELKQVAYIYKCVNTTLQIKGKINSITVDNCKKLGLVFDDVVGIVEIINSRDVKVQVMGKVPTISINKTDGCHAYLSKNSLDCEIVSAKSSEMNVLIPTEGGDFNEFPVPEQFKTLWNGQKLVTTVTEIAG
- stoichiometry N (cross-linking [3]): 2

B3: His-tagged recombinant mouse CAP1 (wild type), from HEK cells (natural protein, UniProt P40124 1-474, looked up)
chain: MADMQNLVERLERAVGRLEAVSHTSDMHCGYGDSPSKGAVPYVQAFDSLLANPVAEYLKMSKEIGGDVQKHAEMVHTGLKLERALLATASQCQQPAGNKLSDLLAPISEQIQEVITFREKNRGSKFFNHLSAVSESIQALGWVALAAKPGPFVKEMNDAAMFYTNRVLKEYRDVDKKHVDWVRAYLSIWTELQAYIKEFHTTGLAWSKTGPVAKELSGLPSGPSVGSGPPPPPPGPPPPPISTSSGSDDSASRSALFAQINQGESITHALKHVSDDMKTHKNPALKAQSGPVRSGPKPFSAPKPQTSPSPKPATKKEPALLELEGKKWRVENQENVSNLVIDDTELKQVAYIYKCVNTTLQIKGKINSITVDNCKKLGLVFDDVVGIVEIINSRDVKVQVMGKVPTISINKTDGCHAYLSKNSLDCEIVSAKSSEMNVLIPTEGGDFNEFPVPEQFKTLWNGQKLVTTVTEIAG
- binding result (cross-linking [4]): binds

Continued, values first:

- dimer:monomer ratio in the pellet, percent of that in the supernatant [1]: 172%
Molecule: disulfide-crosslinked CAP1 dimer (rat, endogenous, from Cd2+-treated cells) (from UniProt Q08163 1-474) (complex)

- dimer:monomer ratio in the pull-down, percent of that in the total lysate [2]: 220%
B1: disulfide-crosslinked CAP1 dimer (rat, endogenous, from Cd2+-treated cells) (complex)
chain: MADMQNLVERLERAVGRLEAVSHTSDMHCGYGDSPSKGAVPYVQAFDSLLANPVAEYLKMSKEIGGDVQKHAEMVHTGLKLERALLVTASQCQQPAGNKLSDLLAPISEQIQEVITFREKNRGSKFFNHLSAVSESIQALGWVALAAKPGPFVKEMNDAAMFYTNRVLKEYRDVDKKHVDWVRAYLSIWTELQAYIKEFHTTGLAWSKTGPVAKELSGLPSGPSVGSGPPPPPPGPPPPPVPTSSGSDDSASRSALFAQINQGESITHALKHVSDDMKTHKNPALKAQSGPVRSGPKPFSAPKPQTSPSPKPATKKEPALLELEGKKWRVENQENVSNLVIDDTELKQVAYIYKCVNTTLQIKGKINSITVDNCKKLGLVFDDVVGIVEIINSRDVKVQVMGKVPTISINKTDGCHAYLSKNSLDCEIVSAKSSEMNVLIPTEGGDFNEFPVPEQFKTLWNGQKLVTTVTEIAG
modifications: intermolecular disulfide crosslink, DTT-sensitive; involves Cys29 (shown by mutagenesis of mouse CAP1)

— paper PMC6925060 (Archives of toxicology, 2017)
